{"source": "FireProtDB (doi:10.1021/bi00181a602)", "proteins": {"B1": {"name": "Neurotrophin-3 wild type, P20181 (protein)", "chain": "MSILFYVIFLAYLRGIQGNSMDQRSLPEDSLNSLIIKLIQADILKNKLSKQMVDVKENYQSTLPKAEAPREPEQGEATRSEFQPMIATDTELLRQQRRYNSPRVLLSDSTPLEPPPLYLMEDYVGNPVVANRTSPRRKRYAEHKSHRGEYSVCDSESLWVTDKSSAIDIRGHQVTVLGEIKTGNSPVKQYFYETRCKEARPVKNGCRGIDDKHWNSQCKTSQTYVRALTSENNKLVGWRWIRIDTSCVCALSRKIGRT"}}, "conditions": "Mus musculus; pH 3.5; 23 °C; GdnHCl; Fluorescence; citrate-phosphate 100 mM; reversible: yes; whole UniProt chain shown", "note": "“And” between values parts separate entries of the source, which are not always exact repeats. Equal values may be shown once.", "data": [{"protein": "B1", "values": [{"measurement": "denaturant m value", "value": "3.4 kcal/mol/M and 4 kcal/mol/M and 5.1 kcal/mol/M"}, {"measurement": "denaturant midpoint (higher = more stable)", "value": "1.4 M and 2.2 M and 2.1 M"}, {"measurement": "unfolding free energy", "value": "12.7 kcal/mol and 17 kcal/mol and 19 kcal/mol"}]}]}
